One data set has as its target T1, Cid1 WT (Schizosaccharomyces pombe, UniProt O13833 40-377).
T1 sequence: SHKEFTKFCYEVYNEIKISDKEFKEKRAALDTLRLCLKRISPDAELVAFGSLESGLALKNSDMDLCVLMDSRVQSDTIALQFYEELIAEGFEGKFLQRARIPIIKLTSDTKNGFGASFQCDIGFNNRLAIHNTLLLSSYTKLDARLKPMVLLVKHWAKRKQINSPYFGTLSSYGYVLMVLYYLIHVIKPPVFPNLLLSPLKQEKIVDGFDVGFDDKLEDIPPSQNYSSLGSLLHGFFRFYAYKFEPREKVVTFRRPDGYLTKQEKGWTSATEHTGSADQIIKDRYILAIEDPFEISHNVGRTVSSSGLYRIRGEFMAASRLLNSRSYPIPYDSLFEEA
Description: EMSA. (In EMSA bound probe runs differently from free probe, usually more slowly.)

The target in the next data set is T2, Cid1 D160A (Schizosaccharomyces pombe, UniProt O13833 40-377, D160A).
T2 sequence: T1 sequence with D121A
In words: EMSA.

Substitutions are numbered along the chain they refer to.

B1: U15 (ssRNA)
RNA: UUUUUUUUUUUUUUU
For B1, the equilibrium dissociation constant (Kd) with Cid1 WT and with Cid1 D160A was about 1000 nM throughout.

The values above are taken from paper PMC3950679.
